Assay results from article PMC11795597, “The NADH-dependent flavin reductase ThdF follows an ordered sequential mechanism though crystal structures reveal two FAD molecules in the active site” (The Journal of Biological Chemistry, 2024).

Columns and labels:
ThdF [1] = target: T1, ThdF (Streptomyces albogriseolus, UniProt A0A1B1V585); test: steady-state inhibition kinetics (NADH turnover at […] nm); assay type: biochemical
[2] = target: ThdF after in situ proteolysis with elastase, as crystallised (crystal forms 1 and 2) (Streptomyces albogriseolus); test: crystal structure; ThdF with elastase (in situ proteolysis), sitting drop, 20 °C; crystal form 1 (P212121) and form 2 (P21) with two FAD per chain, and form 1 soaked with NADH and dithionite; four molecules per asymmetric unit
ThdF [3] = target: T1, ThdF; test: steady-state product inhibition kinetics; assay type: biochemical
ThdF [4] = target: T2, ThdF (Streptomyces albogriseolus, UniProt A0A1B1V585); test: fluorescence anisotropy; crystal structures ([…] and […] Å) with two FAD per chain; assay type: binding
T2 construct: apoThdF (full length) for Kd; elastase-digested ThdF, residues about 7-167 built, for crystals
T2 sequence (A0A1B1V585 1-193): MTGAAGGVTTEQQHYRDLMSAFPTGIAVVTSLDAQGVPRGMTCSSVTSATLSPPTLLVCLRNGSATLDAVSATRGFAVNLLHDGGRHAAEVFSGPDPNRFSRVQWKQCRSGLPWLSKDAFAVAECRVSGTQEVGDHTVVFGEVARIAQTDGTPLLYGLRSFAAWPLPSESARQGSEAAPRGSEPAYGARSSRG

[5] = target: the molecule itself; test: crystal structure; full-length ThdF without protease, initial screening, 2.9 Å; not fully refined and not deposited
[6] = substrate: Cc1cc2nc3c(=O)[nH]c(=O)nc-3n(C[C@H](O)[C@H](O)[C@H](O)COP(=O)(O)O)c2cc1C; test: steady-state kinetics, KM as variable substrate; assay type: biochemical, Streptomyces albogriseolus; details: NADH
purified protein = substrate: NC(=O)C1=CN([C@@H]2O[C@H](COP(=O)(O)OP(=O)(O)OC[C@H]3O[C@@H](n4cnc5c(N)ncnc54)[C@H](O)[C@@H]3O)[C@@H](O)[C@H]2O)C=CC1; test: purified protein

## NC(=O)c1ccc[n+]([C@@H]2O[C@H](COP(=O)([O-])O)[C@@H](O)[C@H]2O)c1 [NMN]
ThdF [1]
  steady-state inhibition kinetics (NADH turnover at 340 nm): The NADH-dependent measurement with NMN showed intersecting lines on the ordinate, confirming competitive inhibition toward NADH

## Nc1ncnc2c1ncn2[C@@H]1O[C@H](COP(=O)(O)O)[C@@H](O)[C@H]1O [AMP]
ThdF [1]
  steady-state inhibition kinetics (NADH turnover at 340 nm): The lines intersecting on the ordinate indicate competitive inhibition of NADH by AMP.

## ThdF after in situ proteolysis with elastase, as crystallised (crystal forms 1 and 2) (from UniProt A0A1B1V585 6-171) (domain or fragment)
[2]
  stoichiometry N: 2

## NC(=O)c1ccc[n+]([C@@H]2O[C@H](COP(=O)([O-])OP(=O)(O)OC[C@H]3O[C@@H](n4cnc5c(N)ncnc54)[C@H](O)[C@@H]3O)[C@@H](O)[C@H]2O)c1 [NAD^+]
ThdF [3]
  steady-state product inhibition kinetics: For both substrates, NAD^+ was found to produce a noncompetitive inhibition pattern

## Cc1cc2nc3c(=O)[nH]c(=O)nc-3n(C[C@H](O)[C@H](O)[C@H](O)COP(=O)(O)OP(=O)(O)OC[C@H]3O[C@@H](n4cnc5c(N)ncnc54)[C@H](O)[C@@H]3O)c2cc1C [FAD]
ThdF [4]
  Kd: 6.8 ± 0.2 µM

B1: NADH-dependent flavin reductase ThdF from Streptomyces albogriseolus, full length, His6-tag removed by TEV protease (enzyme, UniProt A0A1B1V585 1-193, looked up)
chain: T2 sequence (A0A1B1V585 1-193)
notes: flavin reductase ThdF of the thienodoline biosynthetic gene cluster, Streptomyces albogriseolus; 193 residues (truncation to 1-168 removed amino acids 169-193); residual amino acids from TEV protease digestion are left at the N terminus; Codon-optimised synthetic gene in pETM-11; copurifies with FAD (occupancy about 124%); the PDB entries 9fd4-9fd6 come from this protein after elastase digestion; …
[5]
  stoichiometry N: 2
[6]
  Km: 0.28 ± 0.07 µM
  kcat: 0.2 ± 0.08 s⁻¹

B2: ThdF (Streptomyces albogriseolus) (protein)
chain: GGVTTEQQHYRDLMSAFPTGIAVVTSLDAQGVPRGMTCSSVTSATLSPPTLLVCLRNGSATLDAVSATRGFAVNLLHDGGRHAAEVFSGPDPNRFSRVQWKQCRSGLPWLSKDAFAVAECRVSGTQEVGDHTVVFGEVARIAQTDGTPLLYGLRSFAAWPLPSESA
Purified protein
  Km: 19.5 ± 5.6 µM
Purified protein; FAD binds instead of the stacked FAD, R16 contacts the NMN ribose, H136 of the GDH motif the nicotinamide, S48 of the second protomer
  kcat: 0.26 s⁻¹
